Sequences and labels used below:
B1: Segment polarity protein dishevelled homolog DVL-3, residues 2 to 81; numbered along this chain, Q92997 (parent)
chain: GETKIIYHLDGQETPYLVKLPLPAERVTLADFKGVLQRPSYKFFFKSMDDDFGVVKEEISDDNAKLPCFNGRVVSWLVSA

± gives the uncertainty stated by the source.

Variants of B1 are the subject of this data set. The experiment in a line: abundance fitness (aPCA) (normalised: wild type 0, dead -1); higher = more abundant; growth selection in yeast, the domain comes from the species named. As to conditions: Homo sapiens.
Take GETKIIYHLDGQETPYLVKLPLPAERVTLADFKGLLQRPSYKFFFKSMDDDFGVVKEEISDDNAKLPCFNGRVVSWLVSA: the abundance fitness was -0.164 ± 0.06. As for GETKIIYHLDGQETPYLVKLPLPAERVTLADFKGGLQRPSYKFFFKSMDDDFGVVKEEISDDNAKLPCFNGRVVSWLVSA, the abundance fitness is -0.842 ± 0.085.

GETKIIYHLDGQETPYLVKLPLPAERVTLADFKGMLQRPSYKFFFKSMDDDFGVVKEEISDDNAKLPCFNGRVVSWLVSA: the abundance fitness was -0.25 ± 0.086. Next, GETKIIYHLDGQETPYLVKLPLPAERVTLADFKGDLQRPSYKFFFKSMDDDFGVVKEEISDDNAKLPCFNGRVVSWLVSA: -0.892 ± 0.21; GETKIIYHLDGQETPYLVKLPLPAERVTLADFKGILQRPSYKFFFKSMDDDFGVVKEEISDDNAKLPCFNGRVVSWLVSA: -0.141 ± 0.1. As to GETKIIYHLDGQETPYLVKLPLPAERVTLADFKGKLQRPSYKFFFKSMDDDFGVVKEEISDDNAKLPCFNGRVVSWLVSA, the abundance fitness was -0.365 ± 0.1. For GETKIIYHLDGQETPYLVKLPLPAERVTLADFKGHLQRPSYKFFFKSMDDDFGVVKEEISDDNAKLPCFNGRVVSWLVSA the value was -0.301 ± 0.15; for GETKIIYHLDGQETPYLVKLPLPAERVTLADFKGFLQRPSYKFFFKSMDDDFGVVKEEISDDNAKLPCFNGRVVSWLVSA, -0.031 ± 0.12; for GETKIIYHLDGQETPYLVKLPLPAERVTLADFKGPLQRPSYKFFFKSMDDDFGVVKEEISDDNAKLPCFNGRVVSWLVSA, -0.869 ± 0.18. In the case of GETKIIYHLDGQETPYLVKLPLPAERVTLADFKGNLQRPSYKFFFKSMDDDFGVVKEEISDDNAKLPCFNGRVVSWLVSA, the abundance fitness is -0.375 ± 0.19.

For the variant GETKIIYHLDGQETPYLVKLPLPAERVTLADFKGELQRPSYKFFFKSMDDDFGVVKEEISDDNAKLPCFNGRVVSWLVSA, the abundance fitness was -0.468 ± 0.085. For GETKIIYHLDGQETPYLVKLPLPAERVTLADFKGALQRPSYKFFFKSMDDDFGVVKEEISDDNAKLPCFNGRVVSWLVSA the value was 0.173 ± 0.052; for GETKIIYHLDGQETPYLVKLPLPAERVTLADFKGCLQRPSYKFFFKSMDDDFGVVKEEISDDNAKLPCFNGRVVSWLVSA, -0.074 ± 0.099. For GETKIIYHLDGQETPYLVKLPLPAERVTLADFKIVLQRPSYKFFFKSMDDDFGVVKEEISDDNAKLPCFNGRVVSWLVSA the value was -0.519 ± 0.24; for GETKIIYHLDGQETPYLVKLPLPAERVTLADFKDVLQRPSYKFFFKSMDDDFGVVKEEISDDNAKLPCFNGRVVSWLVSA, 0.418 ± 0.08.

Regarding GETKIIYHLDGQETPYLVKLPLPAERVTLADFKCVLQRPSYKFFFKSMDDDFGVVKEEISDDNAKLPCFNGRVVSWLVSA, the abundance fitness was -0.213 ± 0.078. For GETKIIYHLDGQETPYLVKLPLPAERVTLADFKNVLQRPSYKFFFKSMDDDFGVVKEEISDDNAKLPCFNGRVVSWLVSA the value was 0.291 ± 0.092; for GETKIIYHLDGQETPYLVKLPLPAERVTLADFKWVLQRPSYKFFFKSMDDDFGVVKEEISDDNAKLPCFNGRVVSWLVSA, -0.649 ± 0.11. For GETKIIYHLDGQETPYLVKLPLPAERVTLADFKPVLQRPSYKFFFKSMDDDFGVVKEEISDDNAKLPCFNGRVVSWLVSA the value was -1.03 ± 0.21; for GETKIIYHLDGQETPYLVKLPLPAERVTLADFKVVLQRPSYKFFFKSMDDDFGVVKEEISDDNAKLPCFNGRVVSWLVSA, -0.371 ± 0.066. Next, GETKIIYHLDGQETPYLVKLPLPAERVTLADFKTVLQRPSYKFFFKSMDDDFGVVKEEISDDNAKLPCFNGRVVSWLVSA: -0.016 ± 0.078. Regarding GETKIIYHLDGQETPYLVKLPLPAERVTLADFKLVLQRPSYKFFFKSMDDDFGVVKEEISDDNAKLPCFNGRVVSWLVSA, the abundance fitness is -0.119 ± 0.058. With GETKIIYHLDGQETPYLVKLPLPAERVTLADFKHVLQRPSYKFFFKSMDDDFGVVKEEISDDNAKLPCFNGRVVSWLVSA, the abundance fitness is -0.388 ± 0.16. With GETKIIYHLDGQETPYLVKLPLPAERVTLADFKYVLQRPSYKFFFKSMDDDFGVVKEEISDDNAKLPCFNGRVVSWLVSA, the abundance fitness was -0.388 ± 0.14. Next, GETKIIYHLDGQETPYLVKLPLPAERVTLADFKAVLQRPSYKFFFKSMDDDFGVVKEEISDDNAKLPCFNGRVVSWLVSA: 0.174 ± 0.053.

In the case of GETKIIYHLDGQETPYLVKLPLPAERVTLADFKQVLQRPSYKFFFKSMDDDFGVVKEEISDDNAKLPCFNGRVVSWLVSA, the abundance fitness was found to be 0.166 ± 0.076. For GETKIIYHLDGQETPYLVKLPLPAERVTLADFKRVLQRPSYKFFFKSMDDDFGVVKEEISDDNAKLPCFNGRVVSWLVSA the value was 0.156 ± 0.043; for GETKIIYHLDGQETPYLVKLPLPAERVTLADFKMVLQRPSYKFFFKSMDDDFGVVKEEISDDNAKLPCFNGRVVSWLVSA, 0.042 ± 0.072. Next, GETKIIYHLDGQETPYLVKLPLPAERVTLADQKGVLQRPSYKFFFKSMDDDFGVVKEEISDDNAKLPCFNGRVVSWLVSA: -0.855 ± 0.19; GETKIIYHLDGQETPYLVKLPLPAERVTLADNKGVLQRPSYKFFFKSMDDDFGVVKEEISDDNAKLPCFNGRVVSWLVSA: -1.28 ± 0.45. For the variant GETKIIYHLDGQETPYLVKLPLPAERVTLADDKGVLQRPSYKFFFKSMDDDFGVVKEEISDDNAKLPCFNGRVVSWLVSA, the abundance fitness was -0.688 ± 0.23. Next, GETKIIYHLDGQETPYLVKLPLPAERVTLADMKGVLQRPSYKFFFKSMDDDFGVVKEEISDDNAKLPCFNGRVVSWLVSA: -0.624 ± 0.14.

Turning to GETKIIYHLDGQETPYLVKLPLPAERVTLADYKGVLQRPSYKFFFKSMDDDFGVVKEEISDDNAKLPCFNGRVVSWLVSA, the abundance fitness was -0.544 ± 0.18. Regarding GETKIIYHLDGQETPYLVKLPLPAERVTLADEKGVLQRPSYKFFFKSMDDDFGVVKEEISDDNAKLPCFNGRVVSWLVSA, the abundance fitness was -0.649 ± 0.11.
